Data published in patent US8840891 (RSR, dated 2014).

Tests used:
Assay in all cases: cell-based or functional assay
[1] = biological target: human TSHR (wild type) expressed in CHO cells (human) (UniProt P16473)
[2] = biological target: human TSHR with Asp276 mutated to Alanine, expressed in CHO cells (human) (UniProt P16473)
[3] = biological target: human TSHR Asp203Ala, expressed in CHO cells (human) (UniProt P16473)
[4] = biological target: human TSHR expressed on CHO cells (human) (UniProt P16473)
[5] = biological target: wild type human TSHR (human) (UniProt P16473)

Sequence of 5C9 IgG (antibody) (VH): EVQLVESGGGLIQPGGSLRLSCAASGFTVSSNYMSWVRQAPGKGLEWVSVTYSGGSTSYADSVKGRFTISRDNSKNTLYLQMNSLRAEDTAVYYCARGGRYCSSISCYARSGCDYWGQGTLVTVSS
Sequence of 5C9 IgG (antibody) (VL): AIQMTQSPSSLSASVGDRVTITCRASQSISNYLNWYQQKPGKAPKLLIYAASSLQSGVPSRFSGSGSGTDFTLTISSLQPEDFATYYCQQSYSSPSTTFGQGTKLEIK

## 5C9 IgG (antibody)
[1]
  % inhibition of TSH stimulated cyclic AMP level; pTSH 3 ng/mL + 1 µg/mL 5C9: 92%
  Cyclic AMP produced; 5C9 0.01 µg/mL + pTSH 3 ng/mL; Experiment 1 (fmol/cell well): 17200
  Cyclic AMP produced; 5C9 0.01 µg/mL + pTSH 3 ng/mL; Experiment 2 (fmol/cell well): 14100
  Cyclic AMP produced; 5C9 0.1 µg/mL + pTSH 3 ng/mL; Experiment 1 (fmol/cell well): 5590
  Cyclic AMP produced; 5C9 0.1 µg/mL + pTSH 3 ng/mL; Experiment 2 (fmol/cell well): 4460
  Cyclic AMP produced; 5C9 1.0 µg/mL + pTSH 3 ng/mL; Experiment 1 (mean of duplicate determinations) (fmol/cell well): 759
  Cyclic AMP produced; 5C9 1.0 µg/mL + pTSH 3 ng/mL; Experiment 2 (fmol/cell well): 657
  Cyclic AMP produced; 5C9 10 µg/mL + pTSH 3 ng/mL; Experiment 1 (fmol/cell well): 366
  Cyclic AMP produced; 5C9 10 µg/mL + pTSH 3 ng/mL; Experiment 2 (fmol/cell well): 541
  Cyclic AMP produced; 5C9 100 µg/mL + pTSH 3 ng/mL; Experiment 1 (fmol/cell well): 344
  Cyclic AMP produced; 5C9 100 µg/mL + pTSH 3 ng/mL; Experiment 2 (fmol/cell well): 286
  Cyclic AMP produced; 5C9 100 µg/mL only (no TSH); Experiment 1 (fmol/cell well): 300
  Cyclic AMP produced; 5C9 100 µg/mL only (no TSH); Experiment 2 (fmol/cell well): 208
  cyclic AMP concentration; pTSH 3 ng/mL + 1 µg/mL 5C9 (fmol/cell well): 1110
[2]
  Cyclic AMP produced; 5C9 0.01 µg/mL + pTSH 3 ng/mL; Experiment 1 (fmol/cell well): 26200
  Cyclic AMP produced; 5C9 0.01 µg/mL + pTSH 3 ng/mL; Experiment 2 (fmol/cell well): 21200
  Cyclic AMP produced; 5C9 0.1 µg/mL + pTSH 3 ng/mL; Experiment 1 (fmol/cell well): 16900
  Cyclic AMP produced; 5C9 0.1 µg/mL + pTSH 3 ng/mL; Experiment 2 (fmol/cell well): 7320
  Cyclic AMP produced; 5C9 1.0 µg/mL + pTSH 3 ng/mL; Experiment 1 (fmol/cell well): 4790
  Cyclic AMP produced; 5C9 1.0 µg/mL + pTSH 3 ng/mL; Experiment 2 (fmol/cell well): 1510
  Cyclic AMP produced; 5C9 10 µg/mL + pTSH 3 ng/mL; Experiment 1 (fmol/cell well): 1380
  Cyclic AMP produced; 5C9 10 µg/mL + pTSH 3 ng/mL; Experiment 2 (fmol/cell well): 1300
  Cyclic AMP produced; 5C9 100 µg/mL + pTSH 3 ng/mL; Experiment 1 (fmol/cell well): 565
  Cyclic AMP produced; 5C9 100 µg/mL + pTSH 3 ng/mL; Experiment 2 (fmol/cell well): 288
  Cyclic AMP produced; 5C9 100 µg/mL only (no TSH); Experiment 1 (fmol/cell well): 602
  Cyclic AMP produced; 5C9 100 µg/mL only (no TSH); Experiment 2 (fmol/cell well): 314
  Mutated/wild type (%) of cyclic AMP; 5C9 0.01 µg/mL + pTSH 3 ng/mL; Experiment 1: 152%
  Mutated/wild type (%) of cyclic AMP; 5C9 0.01 µg/mL + pTSH 3 ng/mL; Experiment 2: 151%
  Mutated/wild type (%) of cyclic AMP; 5C9 0.1 µg/mL + pTSH 3 ng/mL; Experiment 1: 301%
  Mutated/wild type (%) of cyclic AMP; 5C9 0.1 µg/mL + pTSH 3 ng/mL; Experiment 2: 164%
  Mutated/wild type (%) of cyclic AMP; 5C9 1.0 µg/mL + pTSH 3 ng/mL; Experiment 1: 631%
  Mutated/wild type (%) of cyclic AMP; 5C9 1.0 µg/mL + pTSH 3 ng/mL; Experiment 2: 230%
  Mutated/wild type (%) of cyclic AMP; 5C9 10 µg/mL + pTSH 3 ng/mL; Experiment 1: 378%
  Mutated/wild type (%) of cyclic AMP; 5C9 10 µg/mL + pTSH 3 ng/mL; Experiment 2: 240%
  Mutated/wild type (%) of cyclic AMP; 5C9 100 µg/mL + pTSH 3 ng/mL; Experiment 1: 164%
  Mutated/wild type (%) of cyclic AMP; 5C9 100 µg/mL + pTSH 3 ng/mL; Experiment 2: 101%
  Mutated/wild type (%) of cyclic AMP; 5C9 100 µg/mL only (no TSH); Experiment 1: 201%
  Mutated/wild type (%) of cyclic AMP; 5C9 100 µg/mL only (no TSH); Experiment 2: 151%
[3]
  % inhibition of TSH stimulated cyclic AMP level; pTSH 3 ng/mL + 1 µg/mL 5C9: 4%
  cyclic AMP concentration; pTSH 3 ng/mL + 1 µg/mL 5C9 (mean of duplicate samples) (fmol/cell well): 9400
[4]
  Cyclic AMP, serum T1 + 0.001 µg/mL 5C9 IgG (fmol/cell well): 16900
  Cyclic AMP, serum T1 + 0.01 µg/mL 5C9 IgG (fmol/cell well): 20300
  Cyclic AMP, serum T1 + 0.1 µg/mL 5C9 IgG (fmol/cell well): 16200
  Cyclic AMP, serum T1 + 1 µg/mL 5C9 IgG (fmol/cell well): 2430
  Cyclic AMP, serum T1 + 10 µg/mL 5C9 IgG (fmol/cell well): 1120
  Cyclic AMP, serum T3 + 0.001 µg/mL 5C9 IgG (fmol/cell well): 11600
  Cyclic AMP, serum T3 + 0.01 µg/mL 5C9 IgG (fmol/cell well): 13700
  Cyclic AMP, serum T3 + 0.1 µg/mL 5C9 IgG (fmol/cell well): 10400
  Cyclic AMP, serum T3 + 1 µg/mL 5C9 IgG (fmol/cell well): 8080
  Cyclic AMP, serum T3 + 10 µg/mL 5C9 IgG (fmol/cell well): 7810
  Cyclic AMP, serum T6 + 0.001 µg/mL 5C9 IgG (fmol/cell well): 11800
  Cyclic AMP, serum T6 + 0.01 µg/mL 5C9 IgG (fmol/cell well): 13900
  Cyclic AMP, serum T6 + 0.1 µg/mL 5C9 IgG (fmol/cell well): 9530
  Cyclic AMP, serum T6 + 1 µg/mL 5C9 IgG (fmol/cell well): 2370
  Cyclic AMP, serum T6 + 10 µg/mL 5C9 IgG (fmol/cell well): 1030
  Cyclic AMP, serum T19 + 0.001 µg/mL 5C9 IgG (mean of duplicate) (fmol/cell well): 6470
  Cyclic AMP, serum T19 + 0.01 µg/mL 5C9 IgG (fmol/cell well): 5750
  Cyclic AMP, serum T19 + 0.1 µg/mL 5C9 IgG (fmol/cell well): 375
  Cyclic AMP, serum T19 + 1 µg/mL 5C9 IgG (fmol/cell well): 187
  Cyclic AMP, serum T19 + 10 µg/mL 5C9 IgG (fmol/cell well): 275
  Cyclic AMP, serum T20 + 0.001 µg/mL 5C9 IgG (mean of duplicate) (fmol/cell well): 4860
  Cyclic AMP, serum T20 + 0.01 µg/mL 5C9 IgG (fmol/cell well): 6490
  Cyclic AMP, serum T20 + 0.1 µg/mL 5C9 IgG (fmol/cell well): 2180
[5]
  cyclic AMP; 5C9 0.01 µg/mL + TSH (fmol/cell well): 12300
  cyclic AMP; 5C9 1.0 µg/mL + TSH (fmol/cell well): 3700
  cyclic AMP; 5C9 10 µg/mL + TSH (fmol/cell well): 1800
  cyclic AMP; 5C9 100 µg/mL + TSH (fmol/cell well): 2220
  cyclic AMP; 5C9 100 µg/mL only (fmol/cell well): 195
